Source: article PMC5594493, “Antiproliferative factor (APF) binds specifically to sites within the cytoskeleton-associated protein 4 (CKAP4) extracellular domain” (BMC Biochemistry, 2017)

Assays:
CKAP4 = assay: SPR binding to CKAP4 recombinant proteins (overall statements); details: comparison of as-APF, APF and control peptide
Experimental: (§1) All SPR experiments were performed on a Biacore X-100 instrument (GE Healthcare) with the chip surface at 25 °C using PBS containing 0.01% Tween-20 as running buffer. CKAP4 recombinant proteins were immobilized individually either by Ni^2+/nitrilotriacetic acid (NTA) chelation on Sensor Chip NTA or by amine-coupling on Sensor Chip CM5, on the Fc2 channel. For amine-coupling, the sensor surface on both flow cells was activated for 7 min with a 1:1 mixture of 0.1 M EDC (1-ethyl-3-(3-dimethylaminopropyl) carbodiimide hydrochloride) and 0.1 M NHS (N-hydroxysuccinimide) at a flow rate of 5 μl/min. Immobilization of CKAP4 proteins (on Fc2) was performed in 10 mM sodium acetate buffer, at either pH 4.5, 5.0, or 5.5 based on preliminary pH scouting runs, for optimal binding. Unreacted NHS groups were quenched with a 7 min injection of 1 M ethanolamine pH 8.5. The Fc1 channel was treated similarly but without CKAP4 and served as a reference. Upon stabilization of the baseline signal, multi-cycle kinetics assays were performed with injections of as-APF as analyte at various concentrations (2.5–40 μM) in running buffer at 30 μl/min for 2 min, immediately followed by a 3 min dissociation phase. […] The data were analyzed using Biacore Evaluation software V2.0. […]

CKAP4_127–360 = target: T1, CKAP4_127–360 (Homo sapiens, UniProt Q07065); assay: SPR binding kinetics, CKAP4_127–360 immobilized on CM5; details: CM5 amine-coupling
T1 construct: amino acids 106–602, 127–360, 361–524, and 525–602 regions were generated by PCR and subcloned into the pET-15b bacterial expression vector; His-tag; made in house; host or cells: E. coli BL21(DE3)pLysS
T1 sequence (Q07065 127-360): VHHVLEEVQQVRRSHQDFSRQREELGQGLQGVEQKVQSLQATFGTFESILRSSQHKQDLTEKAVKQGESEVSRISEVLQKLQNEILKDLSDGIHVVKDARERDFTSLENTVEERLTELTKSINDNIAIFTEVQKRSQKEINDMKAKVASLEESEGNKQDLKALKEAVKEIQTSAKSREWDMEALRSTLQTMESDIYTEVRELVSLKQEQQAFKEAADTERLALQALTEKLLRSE
Experimental: as §1, with “binding.” for “binding. Unreacted NHS groups were quenched with a 7 min injection of 1 M ethanolamine pH 8.5. The Fc1 channel was treated similarly but without CKAP4 and served as a reference. Upon stabilization of the baseline signal, multi-cycle kinetics assays were performed with injections of as-APF as analyte at various concentrations (2.5–40 μM) in running buffer at 30 μl/min for 2 min, immediately followed by a 3 min dissociation phase.”
(§2) To assess the as-APF binding activity of the purified CKAP4 deletion mutants, each protein was separately immobilized on a CM5 sensor chip through amine coupling, and SPR responses against APF control peptide and various as-APF concentrations were observed. We used this reverse approach to assess as-APF binding kinetics because the concentration of as-APF synthetic peptide could be calculated more accurately than the purified CKAP4 deletion mutants, which vary in amino acid composition. […]

CKAP4_361–524 = target: T2, CKAP4_361–524 (Homo sapiens, UniProt Q07065); assay: SPR binding kinetics, CKAP4_361–524 immobilized on CM5; details: CM5 amine-coupling
T2 construct: amino acids 106–602, 127–360, 361–524, and 525–602 regions were generated by PCR and subcloned into the pET-15b bacterial expression vector; His-tag; made in house; host or cells: E. coli BL21(DE3)pLysS
T2 sequence (Q07065 361-524): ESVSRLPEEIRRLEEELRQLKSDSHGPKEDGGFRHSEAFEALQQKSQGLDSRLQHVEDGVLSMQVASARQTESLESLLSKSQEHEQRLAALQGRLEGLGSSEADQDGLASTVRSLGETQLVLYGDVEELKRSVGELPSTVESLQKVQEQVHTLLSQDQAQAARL
Experimental: as §1, with “binding.” for “binding. Unreacted NHS groups were quenched with a 7 min injection of 1 M ethanolamine pH 8.5. The Fc1 channel was treated similarly but without CKAP4 and served as a reference. Upon stabilization of the baseline signal, multi-cycle kinetics assays were performed with injections of as-APF as analyte at various concentrations (2.5–40 μM) in running buffer at 30 μl/min for 2 min, immediately followed by a 3 min dissociation phase.”
as §2

CKAP4_525–602 = target: T3, CKAP4_525–602 (Homo sapiens, UniProt Q07065); assay: SPR binding kinetics, CKAP4_525–602 immobilized on CM5; details: CM5 amine-coupling
T3 construct: amino acids 106–602, 127–360, 361–524, and 525–602 regions were generated by PCR and subcloned into the pET-15b bacterial expression vector; His-tag; made in house; host or cells: E. coli BL21(DE3)pLysS
T3 sequence (Q07065 525-602): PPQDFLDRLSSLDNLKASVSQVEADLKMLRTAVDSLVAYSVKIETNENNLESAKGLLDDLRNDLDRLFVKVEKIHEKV
Experimental: as §1, with “binding.” for “binding. Unreacted NHS groups were quenched with a 7 min injection of 1 M ethanolamine pH 8.5. The Fc1 channel was treated similarly but without CKAP4 and served as a reference. Upon stabilization of the baseline signal, multi-cycle kinetics assays were performed with injections of as-APF as analyte at various concentrations (2.5–40 μM) in running buffer at 30 μl/min for 2 min, immediately followed by a 3 min dissociation phase.”
as §2

CKAP4_(361–524) = CKAP4_(361–524) (UniProt Q07065); assay: SPR; CKAP4 deletion mutant amine-coupled on Fc2 of a CM5 chip (352, 585, 1914 RU), Fc1 blank reference; multi-cycle kinetics with as-APF 2.5–40 μM, 30 μl/min, 2 min association, 3 min dissociation; 25 °C, PBS with 0.01% Tween-20; heterogeneous ligand, 1:1 or two-state fit
CKAP4_(127–360) [1] = target: T4, CKAP4_(127–360) (UniProt Q07065 127-360); assay: as above
T4 chain: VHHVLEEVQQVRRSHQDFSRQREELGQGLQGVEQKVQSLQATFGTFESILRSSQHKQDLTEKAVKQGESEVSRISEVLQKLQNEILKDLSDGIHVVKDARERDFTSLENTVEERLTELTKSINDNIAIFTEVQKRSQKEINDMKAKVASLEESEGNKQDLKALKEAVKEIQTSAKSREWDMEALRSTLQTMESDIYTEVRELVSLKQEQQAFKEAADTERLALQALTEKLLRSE

CKAP4_(525–602) = CKAP4_(525–602) (UniProt Q07065); assay: as above
CKAP4_(127–360) [2] = target: T4, CKAP4_(127–360); assay: SPR; heterogeneous ligand fit, KD1

Molecule: TVPAAVVVA [APF control peptide]
- binding to CKAP4 (in words) (CKAP4): no binding response
- specific binding (CKAP4_127–360): no specific binding was detected
- specific binding (CKAP4_361–524): no specific binding was detected
- specific binding (CKAP4_525–602): no specific binding was detected

Molecule: as-APF (asialo APF, Galβ1−3GalNAcα-O-…) (peptide)
- Kd (CKAP4_(361–524)): 2.3 µM
- stoichiometry N (CKAP4_(361–524)): 1
- KD1 (heterogeneous ligand fit) (CKAP4_(127–360) [1]): 4.61 µM
- KD2 (heterogeneous ligand fit) (CKAP4_(127–360) [1]): 0.66 nM
- stoichiometry N (CKAP4_(127–360) [1]): 7.1
- Kd (CKAP4_(525–602)): 197 µM
- stoichiometry N (CKAP4_(525–602)): 1.5

Molecule: TVPAAVVVA (Galβ1−3GalNAcα-O- disaccharide on the N-terminal threonine) [as-APF (asialo APF, Galβ1−3GalNAcα-O-TVPAAVVVA)]
- Kd (CKAP4_(127–360) [2]): 4.6 µM
